The DeepSol protein solubility set

Experiment: soluble on expression in E. coli; label from the status in PepcDB or PDB records

Sequence	soluble on expression in E. coli
MLVNGKWTADWQPVQKADDHGRFVRQVSSFRNWITPDGSAGPTGTGGFAAEAGRYRLYVALICPWASRTLMARRLKGLDGLIPVTVVNPVMGTQGWEFGGHDDAEEDPLFGARHLHEIYTRAEPQFTGRATVPVLWDMKRDAMVNNESADILRMFDTAFEGLAPSDLRLYPAALAGEIDALNAQVYDRLNNGVYKAGFASTQEAYDEAVAGVFEMLDHLEYRLTGDYIFGGALTETDIRIFVTLIRFDAAYHGLFKTNRRQIADYPRLWAYMRRILARPGVRETVNMDHITRGYYSIKALNPSRIRPVGPAHIEAALRETAAGI	not soluble
MVLFVDFLLEWLEMMRTRVRETTYASYNSGIRQSIIPYFMDKKLTLTDIEENPKYLQDFYQHELSKGLSPNSVLRRHANIRKALQHAFHLGLIKSNPADRIERPKKQLEHHHHHH	not soluble
AIYVDLPNRQLKVKVADRRVISTTDAERQAVTPPGLQEAINDLVKKYTLARAFVRPSGTEDIVRVYAEANSQESADRLAYEVSLLVFQLAGGIGERPQP	soluble
MAEYLVPKSAVVFEEEIKKSRFITYLQHTEGLEDARAFWAKIKQEHPNARHHCWAAVAGKPTDSLQLGFSDDGEPAGTAGKPMLSALQGSQLGEISAVVVRYYGGILLGTGGLVRAYGNGVQQALKLIESEIKVERTLFKLDCDYGQLRLVQQLCEKYQVEILSQGFQANIHLILGISEKTIEAFSSELTEKSSGRLVIQLLEIGELEHHHHHH	soluble
MDSALFKTIALIGKHKNPDIVIPLLSLAEYLTDRGISVVLDSLTAAHISNSRYPILTLEEIGKQADLAIVLGGDGTMLNIARALVPFSVPLIGINQGRLGFLTDLTADTMHETLNDMLAGQFVVENRMLLTVEVTRNGESVFKELAFNDVVLHRGISSGMIELEVHINGEYVYSLRSDGLIIATPTGSTAYALSSGGPILHPGLNLMTLVPICPHTLSNRPIVIGADATIEIKVHFTTEIKIYTDSHSWFDLSEHDRVFIQRCPETIKLLHPVHHSYYRMLREKLGWSGILQKNSRLEHHHHHH	not soluble
MLRISELKLPLDHTQEELADAVAGFLKAPADEVRGFTVFKRSYDARKGVMSLVYIIDVDVANEDKLFARFKGDRRVMPTPDTHYYYVAQAPESLKSRPVVVGFGPCGIFAALILAQMGFKPIVLERGKEVRQRTKDTWGLWRKSELNTESNVQYGEGGAGTFSDGKLYSQIKDPRHLGRKVLTEFVKAGAPEEILYLARPHIGTFRLVSMVENMRAEIIALGGEIRFEQRVDDLILDGDRVRGVKLADGGEVLSDHVVLALGHSARDTFQMLEKRGVYMEAKPFSVGVRIEHPQSLIDAARWGKYAGHPILGAADYKLVHHAGNGRAVYSFCMCPGGTVVAATSEEKRVVTNGMSQYSRNERNANSGFVVSISPEVDYPGGPLAGLDFQRELESKAYELGGGDYFAPAQLLGDFMAGKASTQLGSVEPSYKPGVTMTDLARILPDFCVEAMREAIPHFARQIRGYDLHDAVLTGLETRTSSPLRITRGEDFQSLNIKGLFPAGEGAGYAGGILSAGVDGIKVAEAVAKAMLGQLEHHHHHH	soluble
MEAPTVLDVGCGDGARTLANLPPRSVGLDFSRAGLDLAAETVPDSRLVQGDMGSLPVTTDSVDAITAYHAVFHVQRDQHPEVYREFARVLRPGGTVLMTLPSGQFETVRRGWMGGSMFFSAPGRRATLDQLADAGFTETETVTATDPLGSDSEFVFATLADALEHHHHHH	not soluble
MWDKSLVFTFFRRRFGMALSTFKREHIKKNLRNDEYDLVIIGGGITGAGIALDASERGMKVALVEMQDFAQGTSSRSTKLVHGGLRYLKQFQIGVVAETGKERAIVYENGPHVTTPEWMLLPMHKGGTFGKFSTSIGLGMYDRLAGVKKSERKKMLSKKETLAKEPLVKKEGLKGGGYYVEYRTDDARLTIEVMKRAAEKGAEIINYTKSEHFTYDKNQQVNGVKVIDKLTNENYTIKAKKVVNAAGPWVDDVRSGDYARNNKKLRLTKGVHVVIDQSKFPLGQAVYFDTEKDGRMIFAIPREGKAYVGTTDTFYDNIKSSPLTTQEDRDYLIDAINYMFPSVNVTDEDIESTWAGIRPLIYEEGKDPSEISRKDEIWEGKSGLLTIAGGKLTGYRHMAQDIVDLVSKRLKKDYGLTFSPCNTKGLAISGGDVGGSKNFDAFVEQKVDVAKGFGIDEDVARRLASKYGSNVDELFNIAQTSQYHDSKLPLEIYVELVYSIQQEMVYKPNDFLVRRSGKMYFNIKDVLDYKDAVIDIMADMLDYSPAQIEAYTEEVEQAIKEAQHGNNQPAVKELEHHHHHH	soluble
MYKGYLIDLDGTMYRGEEQIEEASDFVKALGERGIPYLFVTNNSTRKPEQVAEKLVRFDIPAKAEQVFTTSMATANFIYERKQDATVYMIGEEGLHDALVEKGFELVDENPDFVVVGLDRDITYEKLAKACLAVRNGATFISTNGDIAIPTERGLLPGNGSLTSVVAVSTGVDPIFIGKPESIIMEQALKVLGIEKNEALMVGDNYDTDILAGINAGMHTLLVHTGVTTVEKLTEYEVQPTQVVHNLTEWIEKM	not soluble
MGSDKIHHHHHHMLAVEMRRIYKVYPDGVVALKGVDFTVEEGEIHGLLGENGAGKSTLMRILYGEIKPTKGEVKVFGDKVEFNGPWDAIRKGIAMVYQHFTLIPTFTVLENLYLSMLTINPNITINEVRKLAKEKMKDIGFSVPLDDVVEDLPIGIQQRVEIIKALMANAKILILDEPTSVLTPLEVEELFKTLRKLKENGITVIFITHKLKEVKEITDRVTVLRRGEVVGVAKTKEVSERDLAKMMVQREIVMEIKKSPASPGNTVLRVEDLWVKDDRGLDAVKGVSFELKEGEILGIAGVQGNGQKELAEALAGIRRIEKGRIELLGRDVTELSADKRYKAGLAYVPDSRKVGLVLDMSVVENVILTNLPSVMRGRRISWEKANKIGKEIVERFDVLVSSLSTPIKHLSGGNQQKVMVGREIIREPKVVIVSEPTQGLDIGATEFIRKTLVSLRDQGKGILLISTDLDEILQLSDRIAVMYEGKIMAIGKVEEFTLEKLGLLMGGVNA	not soluble
ELYGASPDIDLGTGPTPTLGPVTPEICKQDIVFDGIAQIRGEIFFFKDRFIWRTVTPRDKPMGPLLVATFWPELPEKIDAVYEAPQEEKAVFFAGNEYWIYSASTLERGYPKPLTSLGLPPDVQRVDAAFNWSKNKKTYIFAGDKFWRYNEVKKKMDPGFPKLIADAWNAIPDNLDAVVDLQGGGHSYFFKGAYYLKLENQSLKSVKFGSIKSDWLGC	soluble
MKDMKTIEGIIVVTTPEIPGYKVVEVKGVARGGTVRATHIGRDIMALLRNLKGGEVKEYTEMMAEAREEALRRMALHAKELGANAVVNFRFATSNLGGSMAEIYAYGTAVVVERVEK	soluble
MGSDKIHHHHHHMQWETVIGLEIHAQLSTRSKIFSGASVAYGAEPNSQACAVDIALPGVLPVLNRQAIEYAIRFGLAIDATINSPSVFARKNYFYPDLPKGYQISQLEHPIVEGGHVAIQTGDQEKTIRLTRAHLEEDAGKSTHEEFHGMTGIDLNRAGTGLLEIVSEPDMRSSAEAVAYAKVLHSLVRWIGICDGNMQEGSFRCDANVSVRPAGSEALGTRCEIKNLNSFRFLERAIDYEVARQIDILESGGSITQETRLYDADRDETRTMRSKEDAHDYRYFPDPDLLPVIIPQEWIDQIREKLPELPKDKRNRYIQDFGLQTYDANILTAARELADYFEQMVSVLPGQSKLCANWIMGEVSARLNKEGLEIARSPISPEQLAGLLLRITDGTISGKIAKDVFDSMWQSNGDSADTIIDAKNLRQISDDSEIEKWVDDVLAANPQQVADYRAGKEKAFNSLVGQVMKTSKGKANPAQVNSVLKKRLTE	not soluble
MGSDKIHHHHHHMDHAIYTAMGGASQSLEKQAITANNLANASTPGFRAQLSALRAVPVNGLTLPTRTLVVASTPGADMTEGVMNYTGRAMDVALPKESWLAVQTANGGEAYTRNGNMEINADGQLTIQGRVVMGDGGPIDIPPQAQISISADGTISALNAGDPPNTIAQLGRLKLVKATGQEVERSDDGLFRLTQQAQQQRGNVLQNDPTVRIMPGVIEGSNVNTVDTMVDMIANARRFEMQMKVISSVDDNAQRANQILAMG	not soluble
MGSDKIHHHHHHMVIAVRRILIREEYCMGCKLCEINCVAAQVGTGNLIKVYRYVPELPEPNVIVEEHDYVTFALQCRNCDDPSCLKACMTGAMHRDPKTGAIRVNQEKCVGCWMCVMACPFGVIRRNTKEKKVASKCDLCADRGTPGCVEGCPNEALVLVEVRE	not soluble
MQLSKALSLRRVLNSGFHPFQVIPKPDVWMKRERLNRFTAWQYASERSTVKGAYRKEDKIFAYLNMQRQDERNLEKFHAEERVRTALEEHDMEYSKFKSILSQSHILLDNICLSQLAIYEPRSFRSLVAFAKELARQEGMNVIPDDAEFSYDVHVDNKSVLRKPLPRAVEYTRGASENHTNKPRKLREDEY	not soluble
MSLISIVVLYYSRHGSTQALARQIARGVESVEGCQALLRTVAELDGTASNSDPYLSLDELKQCDGLALGSPVWFGNMAAPLKHFWDQTTPLWLSGALIDKPACVFTSSSTLHGGQETTQQSMMLPLLHHGMLILGIPYSEPALHTTQSGGTPYGASHVHQQKTLSSEEAELARQLGKRLAHVAKQLKGEGGSHHHHHH	soluble
GPLGSGMRFMPVQSNFVINHGKLTNQLLQAVAKQTRNGDTQQWFQQEQTTYISRTVNRTLDDYCRSNNSVISKETKGHIFRAVENALQQPLDMNGAQSSIGHFLQSNKYFNQKVDEQCGKRVDPITRFNTQTKMIEQVSQEIFERNFSGFKVSEIKAITQNAILEHVQDTRL	soluble
MRRIGAITALSLPVLLSLLYSCGTGGSASKEEILSKKEHNPEPNIPLECYTDTGVVKLGKAIANPCYVCHTKALTPYENEVDDFDLQLVYDFPEEIKEMGNPWLNAIKPELTIGSVPMPSDEEIKTWIRQDNWSKAYAEKGKGELVYFPDIPPIYKYENGSYELINVDKEGFVRDPETGEYTGWRVFKWKPFPGFFPTNGRIDSTFIRLPEKFRKKNGEFDLNLYKKNLAILECAMKGVAPGETCSGTEVGDFIMPFRYEGDASDVEVVVYQYPPGTEFAHPLYYLDPENTLSFKSLRIKEMRYMKKLAYADTRTGTGEEEEEEGTFFWDKGRFFNDSGYWEMRAFIEDKNGYLRPQSPEESKFCIACHGGIGGTVDGTFTLWRKIPGEEGWKEQDYKNIKDYRYKAITCENLDSLEMGEEVKKALEAYCSKVGESPGEYTVYFALTAGGDHFRSNYEILQDISVDGKVDLELLYNPEKIKFIDNSGFIKPELFFPEPERAYGIDKQYYRIVKAQAFIYGRDVFEKAFGISSGGNSLEELDNLESTGVKESGIWNFVKNFLSSE	not soluble
SKRVNSCVKDEEHVLEELETEGERQLKSLLQHQLDTSVSIEECVSKKKSFAPGTMYKPFGKEAAGTMTLSQFQTLHEKDQETASLRELGLNETEILIWKSHVSGEKRTKLRATPEAIQKRLEDIKERISERQRILCLPQRFSKSKQLTRREMEIEKSLFQGTDRHSFLKALYYQDEPPKKNKGDPMNNLEHFYRETIMKKRLEEFQLLRGESFACHSLVSAASVSGSGTAEKPSLLQDKGKQAAQGKGPRLHVAKLIDFPTEQYWTGPKTLKQPIEFIPEDEIQRNRLSEEEIRNIPMFSSYNPGEPNKVLYLKNLSPRVKERDLISLFARFQEKKGPPIQFRMMTGRMRGQAFLTFPNKDIAWQALHQINGYKLYGKILVIEFAKSKKQQSAVQRSSLITSAPDGRTEINGS	soluble
MAEVHVRELKGWEEMEEVVALQREVWGRAESDLVPRGLLVAVQDEGGLVAGAFAEGRMVGFVFGFPTKDPALHHSHMLGVLEAYRGTGAALLLKRFQRDWCLARGVRRVVWTFDPMRGVNANFNLRKLGATAKTYLPDHYGPMSGINAGAPSDRLLAEWDL	not soluble
